Results from PMC7618248, “VEL-dependent polymerization maintains the chromatin association of Polycomb proteins for the switch to epigenetic silencing” (Molecular cell, 2025).
Positions count from the first letter of the chain named. In names and notes the source's numbering stands.

B1: Lip-VIN3VEL (residues 500-603) wild type (domain or fragment, Arabidopsis thaliana, UniProt Q9FIE3 500-603, looked up)
chain: GKQGGNKRFKSRTVSLNEKPEINNAANGVGDKDLGHIVKTIRCLEEEGHIDKSFRERFLTWYSLRATHREVRVVKIFVETFMEDLSSLGQQLVDTFSESILSKR
notes: VIN3 VEL domain construct, Arabidopsis thaliana, residues 500-603; The end of the tag is read from the name Lip-VIN3VEL; also called WT VIN3VEL; 6xHisLip-tagged VIN3VEL; source: Escherichia coli, purified; not shown: 6xHis-Lip (lipoyl solubility tag), N-terminal, kept
B2: Lip-VIN3VEL (residues 500-603) I575T (domain or fragment, Arabidopsis thaliana, UniProt Q9FIE3 500-603, looked up)
chain: B1 chain with I76T
notes: VIN3 VEL domain construct, Arabidopsis thaliana, residues 500-603, with I575 changed to the threonine found at the corresponding position of VRN5; The end of the tag is read from the name Lip-VIN3VEL; also called I575T mutant Lip-VIN3VEL; VIN3VEL I575T; source: Escherichia coli, purified; not shown: 6xHis-Lip (lipoyl solubility tag), N-terminal, kept

Molecular target: the molecule itself
Assay: SEC-MALS; purified Lip-VIN3VEL at increasing concentrations from 50 uM to 1250 uM; Superose6 Increase 10/300 column

Protein | binding result
B1 | binds
B2 | binds
